Laboratory results reported in paper PMC9638894, “Anti-CRISPR proteins function through thermodynamic tuning and allosteric regulation of CRISPR RNA-guided surveillance complex” (Nucleic Acids Research, 2022).

Molecular target: T1, type IF CRISPR RNA guided surveillance complex (Csy) (UniProt Q02MM2 1-187)
T1 construct: Cas8f subunit (tail) of the type IF Csy complex; Csy1); Cas5 subunit (tail) of the type IF Csy complex; Csy2); Cas7 subunit (backbone, six copies Cas7.1f-Cas7.6f) of the type IF Csy complex; Csy3); Cas6f subunit (head) of the type IF Csy complex; Csy4); Ribonucleoprotein: also holds one crRNA (synthetic CRISPR, Addgene 89244); Purified on Ni-NTA, so one subunit carries a His tag; also called Csy …
Assay: ITC; AcrIF9 or AcrIF2 binding to the Csy complex; conditions not told in the text shown (Supplemental Figure S8)
Details: both partners purified

B1: AcrIF9 (natural protein)
chain: MKAAYIIKEVQNINSEREGTQIEATSLSQAKRIASKEQCFHGTVMRIETVNGLWLAYKEDGKRWVDCQ
B1 showed a dH greater than 0.
